Test results published in the supplement of paper PMC10126150.
± gives the standard deviation of the averaged measurements.

These sequences were tested on ATP (assay: switch fluorescence ratio, 500 uM ATP over buffer (Cy3 cluster intensity, sum of 5 cycles each) (fold (ratio)); higher = stronger signal-on switching upon ATP binding; sequences stand for … in TCGTCGGCAGCGTCAGATGTGTATAAGAGACAGTTTTTTTTTTTTTTTTTTTTTTTTT…TC). Details: aptamer strand: ATP DNA aptamer (quencher-CACCTGGGGGAGTATTGCGGAGGAAGG + anchor), 100 nM annealed; ATP concentration: 500 uM.
How it was run: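 Switching-strand clusters labelled with Cy3 on a modified Illumina MiSeq flow-cell were annealed to 100 nM quencher-labelled ATP aptamer, imaged in selection buffer, and re-imaged after 15 min with 500 uM ATP at 22 °C. This was done over five cycles with NaOH stripping and re-annealing in between. The fluorescence ratio is summed target-cycle over summed buffer-cycle Cy3 intensity per cluster, averaged per switch-domain sequence, excluding clusters outside 100-1000 RFU.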
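Also: ATP exposure 15 min at 22 °C before imaging.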

Sequence | switch fluorescence ratio
CTTATAGGGG | 1 ± 0.035
CTTATAGTGG | 1.06 ± 0.058
CTTATCATAT | 1.09 ± 0.1
CTTATCGTTC | 1.02 ± 0.013
CTTATGAAGC | 1.14 ± 0.012
CTTATTAATC | 1.01 ± 0.028
CTTATTCGCC | 1.05 ± 0.099
CTTATTTGAT | 0.975 ± 0.01
CTTCACATCG | 1.03 ± 0.041
CTTCGCTCGA | 1.35 ± 0.07
CTTCGGGGGT | 1.02 ± 0.019
CTTCGTACGA | 1.03 ± 0.043
CTTCTAGCTT | 0.97 ± 0.058
CTTCTCAGTA | 1.03 ± 0.048
CTTCTTAGTT | 0.976 ± 0.019
CTTCTTTGGG | 1 ± 0.024
CTTCTTTTCA | 1.1 ± 0.064
CTTGAAGGTG | 1.595 ± 0.015
CTTGACAGGT | 1.023 ± 0.0058
CTTGACGCCG | 1.09 ± 0.13
CTTGAGGGGT | 0.971 ± 0.0099
CTTGATACTC | 1.18 ± 0.032
CTTGATATTT | 0.993 ± 0.015
CTTGATTATA | 1.007 ± 0.0061
CTTGCCTGGG | 0.96 ± 0.028

Sequence | switch fluorescence ratio
CTTGCGGTTC | 1.11 ± 0.05
CTTGGATGTT | 0.987 ± 0.024
CTTGGATTCC | 1 ± 0.021
CTTGGGAGGC | 1.02 ± 0.067
CTTGGGAGGG | 0.992 ± 0.029
CTTGGGCCAC | 1 ± 0.032
CTTGGGCCGC | 1.13 ± 0.048
CTTGGGCGGA | 1.027 ± 0.008
CTTGGGGGAT | 0.979 ± 0.038
CTTGGGGGCC | 0.986 ± 0.012
CTTGGGGGGG | 0.991 ± 0.02
CTTGGGTAGG | 1.01 ± 0.035
CTTGGTCCTG | 0.9669 ± 0.007
CTTGGTGCTT | 0.974 ± 0.021
CTTGGTTTTT | 1.01 ± 0.022
CTTGTATCGG | 1 ± 0.056
CTTGTCGATT | 0.999 ± 0.04
CTTGTGAACG | 0.993 ± 0.036
CTTGTGGCTG | 1.031 ± 0.0033
CTTGTGGGGT | 0.978 ± 0.021
CTTGTTCATG | 1 ± 0.017
CTTTAAGTCT | 0.994 ± 0.039
CTTTAAGTTG | 1.03 ± 0.029
CTTTAATGCC | 0.999 ± 0.021
CTTTACCTAC | 1.327 ± 0.0078

Sequence | switch fluorescence ratio
CTTTACTTCC | 2.1 ± 0.024
CTTTACTTCG | 1.07 ± 0.027
CTTTATAGGC | 1.04 ± 0.017
CTTTATATAC | 1.35 ± 0.025
CTTTATGCTG | 1.05 ± 0.047
CTTTATTTAA | 1.02 ± 0.02
CTTTATTTGT | 1.001 ± 0.009
CTTTATTTTC | 1.03 ± 0.039
CTTTCCGTTC | 1.2 ± 0.092
CTTTCGATAG | 1.06 ± 0.049
CTTTCTTGCT | 0.975 ± 0.021
CTTTGAGC | 1 ± 0.064
CTTTGGAATA | 1.07 ± 0.041
CTTTGGATCA | 0.9836 ± 0.0055
CTTTGGGGGA | 0.983 ± 0.023
CTTTGGGGGC | 0.9593 ± 0.0087
CTTTGGTTG | 1.01 ± 0.016
CTTTGTCGAG | 1 ± 0.019
CTTTGTTTGA | 0.976 ± 0.0076
CTTTTAACGA | 1.01 ± 0.03
CTTTTAATGG | 1.03 ± 0.068
CTTTTAATTG | 0.977 ± 0.037
CTTTTACATA | 1.03 ± 0.018
CTTTTAGGGT | 0.996 ± 0.024
CTTTTAGGTA | 0.9425 ± 0.0069

Sequence | switch fluorescence ratio
CTTTTGGGGT | 0.991 ± 0.01
CTTTTTAGAG | 0.994 ± 0.015
CTTTTTAGTG | 0.982 ± 0.023
CTTTTTGGGT | 0.968 ± 0.028
CTTTTTTCGA | 1.04 ± 0.039
CTTTTTTTTA | 0.985 ± 0.021
GAAAAAAAAT | 1 ± 0.067
GAAAAAATGT | 0.967 ± 0.028
GAAAAAGTGC | 0.989 ± 0.095
GAAAAGGGGA | 1.27 ± 0.48
GAAAAGGGTG | 0.99 ± 0.051
GAAAAGTGAG | 0.975 ± 0.016
GAAAATGCAG | 0.999 ± 0.062
GAAACCAGAG | 1.39 ± 0.014
GAAACGCGTA | 0.994 ± 0.021
GAAACGTAAT | 1.19 ± 0.037
GAAACTAATG | 1.01 ± 0.013
GAAACTAGAG | 0.986 ± 0.0047
GAAACTAGTG | 0.996 ± 0.015
GAAAGACGCT | 1.15 ± 0.3
GAAAGAGAGG | 1.003 ± 0.0076
GAAAGAGATG | 1.003 ± 0.008
GAAAGAGGGG | 0.989 ± 0.021
GAAAGGCTCT | 0.9793 ± 0.0031
GAAAGGGGGT | 0.991 ± 0.027

Sequence | switch fluorescence ratio
GAAAGGGTAC | 1.56 ± 0.65
GAAAGGTATT | 0.975 ± 0.021
GAAAGGTCTA | 0.987 ± 0.057
GAAAGGTTTT | 0.9729 ± 0.0055
GAAAGTGGGA | 0.988 ± 0.025
GAAAGTTCAG | 1.002 ± 0.0098
GAAATAAGGC | 1.01 ± 0.013
GAAATAGATC | 0.953 ± 0.07
GAAATCCAGG | 1.297 ± 0.0087
GAAATCGGA | 0.993 ± 0.016
GAAATGAGGG | 0.977 ± 0.047
GAAATGCGCA | 1.08 ± 0.17
GAAATGGGAG | 0.998 ± 0.045
GAAATGGGGA | 1 ± 0.017
GAAATGGGTT | 0.957 ± 0.063
GAAATGTATT | 1.04 ± 0.063
GAAATTAGTG | 1.01 ± 0.039
GAAATTATCA | 0.977 ± 0.025
GAAATTATCG | 0.9988 ± 0.0034
GAAATTGCGG | 0.989 ± 0.024
GAAATTGTTT | 0.991 ± 0.015
GAAATTTAGA | 1.01 ± 0.028
GAAATTTTTG | 0.985 ± 0.029
GAACATGTAT | 0.987 ± 0.026
GAACATTGAG | 1.019 ± 0.0034

Sequence | switch fluorescence ratio
GAACCACGA | 1.05 ± 0.019
GAACCCCCTC | 1.21 ± 0.18
GAACCGCGTA | 1.11 ± 0.036
GAACGGCTAG | 1.02 ± 0.011
GAACGGGACA | 1.18 ± 0.065
GAACGGGGAA | 0.996 ± 0.015
GAACGGGGGA | 0.988 ± 0.035
GAACGTGGTA | 0.9936 ± 0.0038
GAACTAACAG | 1.03 ± 0.021
GAACTAACCA | 1.09 ± 0.02
GAACTAATAT | 1.01 ± 0.017
GAACTAGCGC | 1 ± 0.019
GAACTAGGGG | 1.05 ± 0.088
GAACTAGTAT | 1.01 ± 0.013
GAACTATGTA | 1.038 ± 0.01
GAACTCTTAG | 1.02 ± 0.019
GAACTGGCGC | 1.02 ± 0.096
GAACTGGGGA | 0.984 ± 0.047
GAACTGTTTT | 0.987 ± 0.018
GAACTTGGCG | 1.01 ± 0.041
GAAGAACCGG | 0.974 ± 0.022
GAAGAAGGGT | 0.99 ± 0.017
GAAGAAGGTT | 0.99516 ± 0.00083
GAAGAATTAT | 1.011 ± 0.0007
GAAGACTGGG | 1.02 ± 0.051

Sequence | switch fluorescence ratio
GAAGAGGGAG | 0.997 ± 0.026
GAAGAGGGTT | 0.972 ± 0.033
GAAGAGTTTG | 0.9776 ± 0.0069
GAAGATTGAT | 0.96 ± 0.022
GAAGCCCACG | 1.09 ± 0.019
GAAGCCTTGG | 1.009 ± 0.004
GAAGCGAGTG | 0.9785 ± 0.0056
GAAGCGTCGT | 0.983 ± 0.063
GAAGCGTTGG | 1.02 ± 0.0032
GAAGGAAAGT | 0.9689 ± 0.0057
GAAGGAATCG | 0.995 ± 0.048
GAAGGAGCGG | 0.982 ± 0.023
GAAGGATGCT | 1.03 ± 0.098
GAAGGCCCGT | 0.991 ± 0.037
GAAGGCCGGG | 1.033 ± 0.0054
GAAGGCGGGG | 0.9933 ± 0.0054
GAAGGGACGA | 0.993 ± 0.04
GAAGGGGACT | 1.04 ± 0.076
GAAGGGGGAA | 1.02 ± 0.019
GAAGGGGGCA | 0.9882 ± 0.001
GAAGGGGGGA | 0.985 ± 0.034
GAAGGGGGGG | 0.999 ± 0.042
GAAGGGGTAA | 1.18 ± 0.3
GAAGGGGTCG | 1.05 ± 0.046
GAAGGGGTTG | 1.02 ± 0.065

Sequence | switch fluorescence ratio
GAAGGGTAGC | 0.996 ± 0.037
GAAGGGTGAA | 0.9966 ± 0.0077
GAAGGTACGG | 1.04 ± 0.061
GAAGGTAGGG | 0.99 ± 0.051
GAAGGTATCC | 1.02 ± 0.037
GAAGGTGGGA | 1.038 ± 0.0092
GAAGGTTGCG | 1.03 ± 0.056
GAAGTAAAGT | 1.06 ± 0.15
GAAGTAAGCT | 0.983 ± 0.026
GAAGTACAGC | 1.26 ± 0.031
GAAGTAGGGA | 1 ± 0.064
GAAGTATTGT | 0.9951 ± 0.0062
GAAGTATTTT | 0.962 ± 0.027
GAAGTCATTT | 0.9828 ± 0.0031
GAAGTCTGGA | 1 ± 0.024
GAAGTGCGGA | 0.9795 ± 0.0061
GAAGTTATTT | 0.981 ± 0.021
GAAGTTCATG | 1.03 ± 0.024
GAAGTTGGCA | 0.9964 ± 0.0029
GAAGTTGTTT | 1.018 ± 0.002
GAATAAAAGG | 0.973 ± 0.019
GAATAAAGGT | 0.979 ± 0.02
GAATAGCCCA | 0.9711 ± 0.0012
GAATAGGGGG | 1.013 ± 0.0094
GAATAGGGTA | 0.98 ± 0.018
